Laboratory results published in patent US20260152552A1 (CURON BIOPHARMACEUTICAL SHANGHAI, published 2026).
Substitutions are numbered along the chain they refer to. Like-named read-outs stand apart in the source and are kept apart here. Each block holds one binder with its values, some of them ahead of it.

How the values were obtained:
[1] = target: T1, human L1CAM (L1 cell adhesion molecule), endogenously expressed on the surface of HeLa cells (human, UniProt P32004 20-1257); test: flow cytometry on HeLa cells (endogenous human L1CAM)
T1 construct: whole, on cells; also called CD171
Description: This example utilizes HeLa cells and L1CAM-knockout HeLa cells (purchased from Abcam) to determine the binding of mouse anti-L1CAM monoclonal antibodies to endogenously expressed human L1CAM on the cell surface. L1CAM-knockout HeLa cells are referred to as HeLa KO cells in this invention. HeLa cells are cultured in DMEM complete medium (purchased from Corning) containing 10% FBS (purchased from Gibco) and 100 U/mL penicillin mixture (Thermofisher, 15140122). […] Then, the human-mouse chimeric antibodies are serially diluted in DMEM complete medium, with 25 μL of the diluted chimeric antibody solution added to each well, gently mixed, and incubated at 4° C. for 1 hour. Then, 150 μL of PBS buffer containing 2% FBS (purchased from Corning) is added to each well, centrifuged at 1400 rpm for 4 minutes, the supernatant is removed, and the wells are washed once more. Then, 50 μL of Alexa Flour 647-labeled goat anti-human fluorescent secondary antibody (purchased from Jacksonimmuno) diluted 1:800 is added to each well, and the 96-well plate is incubated at 4° C. for 0.5 hours. The cells are washed twice with PBS solution containing 2% FBS, then resuspended in 120 μL of PBS, and the cell surface fluorescence signal is detected using a flow cytometer (BD FACSCelesta), obtaining the median fluorescence intensity (MFI). A dose-response curve is generated, and the half-maximal effective concentration (EC50) is calculated using non-linear regression with GraphPad software.

[2] = target: T1, human L1CAM (L1 cell adhesion …); test: as above; remark: listed apart in the source
Description: The experimental principle is as follows: HeLa cells express high levels of L1CAM protein on their surface. After incubating humanized L1CAM antibodies with the cells, the binding ability of the antibodies to L1CAM on the surface of HeLa cells can be determined by flow cytometry. The experimental method is descripted as following: Humanized L1CAM antibodies (Human IgG1-Kappa) are diluted in complete medium in a four-fold serial dilution, with seven concentration gradient points. HeLa cells are cultured in DMEM complete medium (Corning, 10-013-CVR) containing 10% FBS (Gibco, 10099-141) and 100 U/mL penicillin mixture (Thermofisher, 15140122). When the cell coverage in the culture container reaches 80-90%, TrypLE (Thermofisher, 12604-013) is used to digest the HeLa cells from the culture container, and they are seeded in a 96-well plate (AXYGEN, P-96-450V-C) at a density of 2.2×10⁶ cells/ml, with 100,000 cells (45 μL complete medium) per well. Then, 5 μL of the antibody dilution is added to each well, gently mixed, and the 96-well plate is incubated at 4° C. for 1 hour. Then, 150 μL of PBS solution containing 2% FBS (Corning, 21-040-CVC) is added to each well, centrifuged at 1400 rpm for 4 minutes, the supernatant is removed, and the wells are washed once more. Then, 50 μL of Alexa Flour 647-labeled goat anti-human fluorescent secondary antibody (Jacksonimmuno, 109-605-088) diluted 1:800 is added to each well, and the 96-well plate is incubated at 4° C. for 0.5 hours. The cells are washed twice with PBS solution containing 2% FBS, then resuspended in 120 μL of PBS, and the cell surface fluorescence signal is detected using a flow cytometer (BD FACS Celesta), obtaining the median fluorescence intensity (MFI). A dose-response curve is generated, and the half-maximal effective concentration (EC50) is calculated using non-linear regression with GraphPad software.

T1 sequence (P32004 20-1257): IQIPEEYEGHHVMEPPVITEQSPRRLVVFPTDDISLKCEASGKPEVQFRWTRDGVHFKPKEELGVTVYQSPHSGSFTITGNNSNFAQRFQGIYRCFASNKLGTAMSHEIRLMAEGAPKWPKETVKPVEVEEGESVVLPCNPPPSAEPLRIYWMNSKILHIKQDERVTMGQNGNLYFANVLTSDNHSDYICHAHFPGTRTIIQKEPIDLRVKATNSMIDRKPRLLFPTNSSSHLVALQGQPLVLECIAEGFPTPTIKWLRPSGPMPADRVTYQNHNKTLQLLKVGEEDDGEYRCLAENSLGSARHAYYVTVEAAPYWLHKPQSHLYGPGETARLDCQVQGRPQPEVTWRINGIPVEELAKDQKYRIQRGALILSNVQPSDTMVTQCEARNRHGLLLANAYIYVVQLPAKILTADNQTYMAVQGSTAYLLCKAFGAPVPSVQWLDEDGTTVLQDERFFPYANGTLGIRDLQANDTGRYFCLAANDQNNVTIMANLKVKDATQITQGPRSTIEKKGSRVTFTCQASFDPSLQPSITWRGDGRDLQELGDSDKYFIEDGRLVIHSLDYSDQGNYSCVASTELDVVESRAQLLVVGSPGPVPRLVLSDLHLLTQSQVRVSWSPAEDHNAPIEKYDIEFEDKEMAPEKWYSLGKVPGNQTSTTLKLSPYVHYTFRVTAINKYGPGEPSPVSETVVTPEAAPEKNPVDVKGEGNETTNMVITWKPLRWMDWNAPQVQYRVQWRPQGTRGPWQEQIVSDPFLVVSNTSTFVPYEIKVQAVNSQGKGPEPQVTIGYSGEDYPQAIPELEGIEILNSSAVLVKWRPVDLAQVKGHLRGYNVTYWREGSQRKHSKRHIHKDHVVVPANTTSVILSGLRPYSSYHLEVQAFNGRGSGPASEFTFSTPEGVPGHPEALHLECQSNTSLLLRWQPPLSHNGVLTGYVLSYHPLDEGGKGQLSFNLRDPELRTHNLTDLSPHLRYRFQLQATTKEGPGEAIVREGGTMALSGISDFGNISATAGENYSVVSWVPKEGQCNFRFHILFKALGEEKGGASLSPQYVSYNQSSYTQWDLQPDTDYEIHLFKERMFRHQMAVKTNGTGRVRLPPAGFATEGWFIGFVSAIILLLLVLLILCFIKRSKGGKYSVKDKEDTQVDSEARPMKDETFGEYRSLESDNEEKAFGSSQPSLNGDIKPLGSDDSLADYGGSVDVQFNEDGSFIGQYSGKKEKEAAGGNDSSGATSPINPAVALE

B5: humanized anti-L1CAM antibody hz49E10H1H7L7 (antibody, V domains shown)
VH: QVQLQESGPGLVKPSQTLSLTCTVSGGSISSDYAWNWIRQPPGKGLEWMGYITYSGTTTYNPSLKSRITISRDTSKNQFSLKLSSVTAADTAVYYCTLDHYGNYAYFDYWGQGTTVTVSS
VL: QIQMTQSPSSLSASVGDRVTITCRASSSVSFMHWYQQKPGKAPKPWIYASSNLVSGVPSRFSGSGSGTDYTLTISSLQPEDFATYYCQQWSSNPSTFGGGTKVEIK
EC50 [2]: 0.852 nM

B6: humanized anti-L1CAM antibody hz49E10H1H8L5 (antibody, V domains shown)
VH: B5 VH with Q1D, K44N
VL: B5 VL with Q1D, P45L, W46L, Y70F
EC50 [2]: 9.27 nM

B9: humanized anti-L1CAM antibody hz103E9B3H6L5 (antibody, V domains shown)
VH: EVQLVQSGAEVKKPGASVKVSCKASGYTFTSYTMHWVRQAPGQGLEWMGDINPNYGGTSYNEKFKDRATMTTDTSTSTAYMELRSLRSDDTAVYYCAREGATGTWYFDVWGQGTTVTVSS
VL: B5 VL with Q1D, R24S, H33F, W46L, A49L, S50T, V54A, Y70F, S91R, S95P
EC50 [2]: 1.48 nM

B10: humanized anti-L1CAM antibody hz103E9B3H5L4 (antibody, V domains shown)
VH: B9 VH with A68V
VL: DIQMTQSPSSLSASVGDRVTITCSASSSVSFMFWYQQKPGKAPKLLIYLTSNLASGVPSRFSGSGSGTDFTLTISSLQPEDFATYYCQQWRSNPPTFGGGTKVEIK
EC50 [2]: 6.84 nM

B11: humanized anti-L1CAM antibody hz103E9B3H5L5 (antibody, V domains shown)
VH: B9 VH with A68V
VL: B10 VL with L45P
EC50 [2]: 1.68 nM

B14: humanized anti-L1CAM antibody hz103E9B3H6L6 (antibody, V domains shown)
VH: B9 VH
VL: B10 VL with L45P, L46W
EC50 [2]: 2.18 nM

B15: humanized anti-L1CAM antibody hz103E9B3H7L4 (antibody, V domains shown)
VH: B9 VH with M48I, M70L
VL: B10 VL
EC50 [2]: 5.32 nM

B17: humanized anti-L1CAM antibody hz103E9B3H7L6 (antibody, V domains shown)
VH: B9 VH with M48I, M70L
VL: B10 VL with L45P, L46W
EC50 [2]: 2.03 nM

B18: humanized anti-L1CAM antibody hz103E9B3H9L4 (antibody, V domains shown)
VH: B9 VH with M48I, M70L, T72V, T74K
VL: B10 VL
EC50 [2]: 5.56 nM

B20: humanized anti-L1CAM antibody hz103E9B3H9L6 (antibody, V domains shown)
VH: B9 VH with M48I, M70L, T72V, T74K
VL: B10 VL with L45P, L46W
EC50 [2]: 2.06 nM

The next lines start with the values.

EC50 [1]: 0.845 nM
Maxium MFI [1]: 43100 MFI
B1: anti-L1CAM human-mouse chimeric antibody ch46F1D5 (antibody, V domains shown)
VH: QVQVQQSGAELAKPGASMKMSCKASGYTFTRYWMQWVKQRPGQGLEWIGYINPSTGYTDYNQNFKDKATLTADKSSSTAYMQLSSLTSEDSAVYYCARRHLGLPLFDYWGQGTTLTVSS
VL: DIVMTQSHKFMSTSLGDRVSITCKASQDVGTAVAWYQQKPGQSPKLLIYWASTRHTGVPDRFTGSGSGTDFTLTISNVQSEDLAEYFCQQYSNYPLTFGAGTKLDLK
notes: VH and VL of mouse 46F1D5 with human IgG1 constant regions; The entries as printed seem to begin with a leader peptide

EC50 [1]: 0.978 nM
Maxium MFI [1]: 42900 MFI
B2: anti-L1CAM human-mouse chimeric antibody ch49E10H1 (antibody, V domains shown)
VH: DVQLQESGPGLVKPSQSLSLTCTVTGYSITSDYAWNWIRQFPGNRLEWMGYITYSGTTTYNPSLKSRISITRDTSKNQFFLQLNSVTTADTATYYCTLDHYGNYAYFDYWGQGTTLTVSS
VL: QIVLSQSPAILSASPGEKVTMTCRASSSVSFMHWYQQKPRSSPKPWIYASSNLVSGVPTRFSGSGSGTSYSLTISRVEAEDAATYYCQQWSSNPSTFGAGTKLELK
notes: VH and VL of mouse 49E10H1 with human IgG1 constant regions; The entries as printed seem to begin with a leader peptide

EC50 [1]: 1.11 nM
Maxium MFI [1]: 45400 MFI
EC50 [2]: 1.21 nM
B3: anti-L1CAM human-mouse chimeric antibody ch103E9B3 (antibody, V domains shown)
VH: EVQLQQSGPELLKPGASVKISCKASGYTFTSYTMHWVKQSHGKSLEWIGDINPNYGGTSYNEKFKDKATLTVDKSSSTAYMELRSLTSEDSAVYYCAREGATGTWYFDVWGTGTTVTVSS
VL: QIVLTQSPALMSASPGEKVTMTCSASSSVSFMFWYQQKPRSSPKPWIYLTSNLASGVPARFSGSGSGTSYSLTISSMEAEDAATYYCQQWRSNPPTFGAGTKLELK
notes: VH and VL of mouse 103E9B3 with human IgG1 constant regions; The entries as printed seem to begin with a leader peptide

EC50 [2]: 10.4 nM
B4: humanized anti-L1CAM antibody hz49E10H1H7L5 (antibody, V domains shown)
VH: B5 VH
VL: B5 VL with Q1D, P45L, W46L, Y70F

EC50 [2]: 1.06 nM
B7: humanized anti-L1CAM antibody hz49E10H1H8L6 (antibody, V domains shown)
VH: B5 VH with Q1D, K44N
VL: B5 VL with Q1D, Y70F

EC50 [2]: 0.82 nM
B8: humanized anti-L1CAM antibody hz49E10H1H8L7 (antibody, V domains shown)
VH: B5 VH with Q1D, K44N
VL: B5 VL

EC50 [2]: 1.93 nM
B12: humanized anti-L1CAM antibody hz103E9B3H5L6 (antibody, V domains shown)
VH: B9 VH with A68V
VL: B10 VL with L45P, L46W

EC50 [2]: 6.59 nM
B13: humanized anti-L1CAM antibody hz103E9B3H6L4 (antibody, V domains shown)
VH: B9 VH
VL: B10 VL

EC50 [2]: 2.13 nM
B16: humanized anti-L1CAM antibody hz103E9B3H7L5 (antibody, V domains shown)
VH: B9 VH with M48I, M70L
VL: B10 VL with L45P

EC50 [2]: 1.96 nM
B19: humanized anti-L1CAM antibody hz103E9B3H9L5 (antibody, V domains shown)
VH: B9 VH with M48I, M70L, T72V, T74K
VL: B10 VL with L45P

EC50 [1]: 0.833 nM
Maxium MFI [1]: 29300 MFI
B21: anti-L1CAM human-mouse chimeric antibody ch25F8H8 (antibody, V domains shown)
VH: B1 VH with V4L, M18V, K23Q, R31T, Q35H, N63K, H100Q
VL: B1 VL with M11L, L15V, Q38H, Y49F, E85D, T102P, D105E
notes: VH and VL of mouse 25F8H8 with human IgG1 constant regions (CH1, CH2, CH3)

EC50 [1]: 0.739 nM
Maxium MFI [1]: 44700 MFI
B22: anti-L1CAM human-mouse chimeric antibody ch26A12C1 (antibody, V domains shown)
VH: B1 VH with V4L, M18V, R31N, G56Y, T58S, N63K, Y80F, H100Q, L101F, V117L
VL: B1 VL with L15V, A84T, E85D, K103E, D105E
notes: VH and VL of mouse 26A12C1 with human IgG1 constant regions; The entries as printed seem to begin with a leader peptide
